Measured values published in patent US20260069728A1, “MULTI-TARGETING COMPOUND AND USE THEREOF” (Chengdu Shetai Medical Technology Co., Ltd., priority 2023, published 2026).
Like-named read-outs stand apart in the source and are kept apart here.

Key:
[1] = Stability of radioligands in PBS buffer (radio-HPLC); assay type: physicochemical
Method: The purpose of this experiment was to test the stability of the radioligands under buffer conditions simulating the physiological environment. This stability is a prerequisite for further animal experiments.
(§1) 1. ^68Ga-SDYD01: ^68Ga-SDYD01 was added to PBS buffer (pH=7.4) and incubated at 37° C. The mixture samples were taken for radio-HPLC analysis after 0.5 hours, 1 hour, and 2 hours of incubation. The stability of ^68Ga-SDYD01 in PBS buffer: the radiochemical purities of ^68Ga-SDYD01 after incubation in PBS for 0.5 hours, 1 hour, and 2 hours were 98%, 97%, and 97%, respectively (FIG. 4).
(§2) 2. ^177Lu-SDYD01: ^177Lu-SDYD01 was added to PBS buffer (pH=7.4) and incubated at 37° C. The mixture samples were taken for radio-HPLC analysis after 24 hours, 48 hours, and 120 hours of incubation. The stability of ^177Lu-SDYD01 in PBS buffer: the radiochemical purities of ^177Lu-SDYD01 after incubation in PBS for 24 hours, 48 hours, and 120 hours were 97%, 96%, and 94%, respectively (FIG. 5).
as §1, with “^68Ga-SDYD02: ^68Ga-SDYD02” for “^68Ga-SDYD01: ^68Ga-SDYD01”, “^68Ga-SDYD02” for “^68Ga-SDYD01”, “96%, 95%” for “98%, 97%,”, “93%,” for “97%,”, “10).” for “4).”
as §2, with “^177Lu-SDYD02: ^177Lu-SDYD02” for “^177Lu-SDYD01: ^177Lu-SDYD01”, “^177Lu-SDYD02” for “^177Lu-SDYD01”, “95%, 91%” for “97%, 96%,”, “87%,” for “94%,”, “11).” for “5).”
as §1, with “1. ^68Ga-SDYD05: ^68Ga-SDYD05” for “1. ^68Ga-SDYD01: ^68Ga-SDYD01”, “of ^68Ga-SDYD05” for “of ^68Ga-SDYD01”, “98%, 96%” for “98%, 97%,”, “and 95%,” for “and 97%,”, “(FIG. 16).” for “(FIG. 4).”
as §2, with “^177Lu-SDYD05: ^177Lu-SDYD05” for “^177Lu-SDYD01: ^177Lu-SDYD01”, “^177Lu-SDYD05” for “^177Lu-SDYD01”, “97%, 96% and” for “97%,”, “96%,” for “96%, and 94%,”, “17).” for “5).”
1. ^68Ga-SDYD06: ^68Ga-SDYD06 was added to PBS buffer (pH=7.4) and incubated at 37° C. The mixture samples were taken for radio-HPLC analysis after 0.5, 1, and 2 hours of incubation. The stability of ^68Ga-SDYD06 in PBS buffer: the radiochemical purities of ^68Ga-SDYD06 after incubation in PBS for 0.5 hours, 1 hour, and 2 hours were 96%, 94% and 93%, respectively (FIG. 22).
2. ^177Lu-SDYD06: ^177Lu-SDYD06 was added to PBS buffer (pH=7.4) and incubated at 37° C. The mixture samples were taken for radio-HPLC analysis after 24 hours, 48 hours, and 120 hours of incubation.
1. ^68Ga-SDYD03: ^68Ga-SDYD03 was added to PBS buffer (pH=7.4) and incubated at 37° C. The mixture samples were taken for radio-HPLC analysis after 0.5 hours, 1 hour, and 2 hours of incubation. The stability of ^68Ga-SDYD03 PBS in PBS buffer: the radiochemical purities of ^68Ga-SDYD03 after incubation in PBS for 0.5 hours, 1 hour, and 2 hours were 96%, 96% and 95%, respectively (FIG. 27).
as §2, with “^177Lu-SDYD03: ^177Lu-SDYD03” for “^177Lu-SDYD01: ^177Lu-SDYD01”, “^177Lu-SDYD03” for “^177Lu-SDYD01”, “are 99%, 96%” for “were 97%, 96%,”, “28). […]” for “5).”

[2] = system: subcutaneous xenograft tumors (U87 MG cells); assay: Small animal PET imaging and biodistribution study; assay type: in vivo, NSG mice
Method: (§3) Eleven NSG mice bearing subcutaneous xenograft tumors (U87 MG cells), with tumor sizes approximately 150 mm^3, were used. The mice were intravenously injected via the tail vein with approximately 7.4 MBq of ^68Ga-labeled SDYD01, SDYD02, SDYD03. SDYD04, SDYD05, SDYD06, SDYD07, SDYD08 or SDYD07-1 compounds, or with ^[…]-labeled FAPI-04 or FAP2286 compounds as tracers. Micro PET/CT imaging was performed at 30 min, 60 min, and 120 min post-injection. Static images were acquired in 3D mode for 20 minutes. Reconstruction was performed using the OSEM3D/MAP method to obtain attenuation-corrected PET/CT fusion images.
(§4) NSG mice bearing subcutaneous xenograft tumors (U87 MG cells) were divided into 3 groups, with 11 mice in each group. They were intravenously injected via the tail vein with ^68Ga-labeled SDYD01, SDYD02, SDYD03. SDYD04, SDYD05, SDYD06. SDYD07, SDYD08, or SDYD07-1 compounds, or with ^68Ga-labeled FAPI-04 or FAP2286 compounds as tracers. Tumor-bearing mice injected with ^68Ga-labeled compounds SDYD01, SDYD02, SDYD03, SDYD04, SDYD05, SDYD06, FAPI-04, as well as 68Ga-labeled compounds FAPI-04 and FAP2286, were euthanized at 30 min. 60 min, and 120 min, respectively, for each group. Tumor-bearing mice injected with ^68Ga-labeled compounds SDYD07, SDYD08, and SDYD07-1 were euthanized at 30 min, 60 min, and 90 min, respectively, for each group. Blood, tumors, and other major organs and tissues were collected, weighed, and measured for radioactivity. After radioactive decay correction, the standardized uptake value (SUV) and percentage injected dose per gram of tissue (% ID/g) were calculated. In these figures, (a) represents the PET/CT imaging results, (b) represents the biodistribution results, and (c) represents the relative ratios of radioactive uptake in tumor versus normal tissues.

[3] = Small animal PET imaging and biodistribution study; assay type: in vivo, NSG mice; conditions: NSG, mouse, in vivo, iv, 7.4 MBq, total radioactivity
Method: as §3, §4

[4] = absolute uptake value in the tumor

Compound | stability in PBS buffer (in words) [1] | radioactive uptake in the tumor sites (in words) ([2]; mouse, in vivo) | tissue uptake at 0.5 h [3, 4] [%ID/g] | tissue uptake at 1 h [3, 4] [%ID/g] | stability in PBS buffer (in words) ([1]; PBS buffer pH=7.4, 37° C.) | radioactive uptake in the tumor sites (in words) ([2]; tail vein injection, U87 MG tumor-bearing NSG mice) | tissue uptake at 0.5 h ([3]; 30 minutes post-injection, read-out: absolute uptake value in the tumor) [%ID/g] | tissue uptake at 1 h ([3]; 60 minutes post-injection, read-out: absolute uptake value in the tumor) [%ID/g] | radioactive uptake in non-target organs (in words) ([2]; mouse, in vivo) | target/non-target ratios (in words) ([2]; mouse, in vivo) | tumor uptake and tumor retention time, comparison (in words) ([2]; mouse, in vivo) | tissue uptake at 2 h [3, 4] [%ID/g]
CCCCCC(=O)N[C@@H]1CSCc2cc(CSCCNC(=O)[C@@H](CCCCNC(=O)CN3CCN(CC(=O)O)CCN(CC(=O)O)CCN(CC(=O)O)CC3)NC(=O)COCCOCCNC(=O)COCCOCCNC(=O)CCN3C(=O)CC(SCCNC(=O)CCC(=O)N[C@@H](CCCNC(=N)N)C(=O)N[C@@H](CCCNC(=N)N)C(=O)N[C@@H](Cc4ccc5ccccc5c4)C(=O)N[C@@H]4CSSC[C@@H](C(=O)N[C@@H](CCCNC(=N)N)C(N)=O)NC(=O)[C@H](CCCNC(N)=O)NC(=O)[C@H](CCCNC(=N)N)NC(=O)[C@H](Cc5ccc(O)cc5)NC(=O)[C@@H]5CCCN5C(=O)[C@H](CCCCN)NC(=O)[C@H](CCCCN)NC(=O)[C@H](CCCNC(N)=O)NC(=O)[C@H](Cc5ccc(O)cc5)NC4=O)C3=O)cc(c2)CSC[C@@H](C(=O)O)NC(=O)[C@H](Cc2ccccc2)NC(=O)[C@H](CCC(N)=O)NC(=O)C([C@@H](C)O)NC(=O)[C@@H]2CCCN2C(=O)[C@@H]2CCCN2C1=O (single isomer, unassigned) [^68Ga-SDYD02, metal not drawn] | quite stable in PBS buffer | significant radioactive uptake in the tumor sites | ≥ 10 | ≥ 10 |  |  |  |  |  |  |  | 
CC(C)CC(CC(C)C)NC(=O)[C@H](Cc1cnc[nH]1)NC(=O)CNC(=O)C(NC(=O)[C@H](C)NC(=O)[C@H](Cc1c[nH]c2ccccc12)NC(=O)[C@H](CCC(N)=O)NC(=O)[C@@H](Cc1ccccc1)NC(=O)COCC(=O)Nc1ccc(CNC(=O)COCCOCCNC(=O)COCCOCCNC(=O)[C@H](CCCCNC(=O)CN2CCN(CC(=O)O)CCN(CC(=O)O)CCN(CC(=O)O)CC2)NC(=O)CCC(=O)N2CCN(CCCOc3ccc4nccc(C(=O)NCC(=O)N5CC(F)(F)C[C@H]5C#N)c4c3)CC2)cc1)C(C)C (single isomer, unassigned) [^68Ga-SDYD03, metal not drawn] |  |  |  |  | quite stable in PBS buffer | significant radioactive uptake in the tumor sites | ≥ 10 | ≥ 10 |  |  |  | 
CCCCCC(=O)N[C@@H]1CSCc2cc(CSCCNC(=O)COCCOCCNC(=O)COCCOCCNC(=O)CSC3CC(=O)N(CCC(=O)N[C@H](CCCCNC(=O)CN4CCN(CC(=O)O)CCN(CC(=O)O)CCN(CC(=O)O)CC4)C(=O)NCc4ccc(C(=O)NCCC[C@@H]5C(=O)N[C@@H](CCCNC(=N)N)C(=O)N[C@@H](Cc6ccc7ccccc7c6)C(=O)NCC(=O)N[C@H](Cc6ccc(O)cc6)C(=O)N5C)cc4)C3=O)cc(c2)CSC[C@@H](C(=O)O)NC(=O)[C@H](Cc2ccccc2)NC(=O)[C@H](CCC(N)=O)NC(=O)C([C@@H](C)O)NC(=O)[C@@H]2CCCN2C(=O)[C@@H]2CCCN2C1=O (single isomer, unassigned) [^68Ga-SDYD06, metal not drawn] | quite stable in PBS buffer | significant radioactive uptake in the tumor sites | ≥ 10 | ≥ 10 |  |  |  |  |  |  |  | 
N#C[C@@H]1CC(F)(F)CN1C(=O)CNC(=O)c1ccnc2ccc(OCCCN3CCN(C(=O)[C@H](CCCCNC(=O)CCN4C(=O)CC(SCC(=O)NCCOCCOCCOCCOCCC(=O)NCCCC[C@@H]5NC(=O)[C@@H](Cc6ccc(O)cc6)NC(=O)[C@H](CC(=O)O)NC(=O)CNC(=O)[C@H](CCCNC(=N)N)NC5=O)C4=O)NC(=O)CCC(C(=O)O)N4CCN(CC(=O)O)CCN(CC(=O)O)CCN(CC(=O)O)CC4)CC3)cc12 (single isomer, unassigned) [^68Ga-SDYD07, metal not drawn] | quite stable in PBS buffer | significant radioactive uptake in the tumor sites | ≥ 10 | ≥ 10 |  |  |  |  | significantly reduced at 60 minutes | significantly increased target/non-target ratios | higher tumor uptake and longer tumor retention time | ~10
CCCCCC(=O)N[C@H]1CSCc2cc(CSCCNC(=O)[C@H](CCCCNC(=O)CCN3C(=O)CC(SCC(=O)NCCOCCOCCOCCOCCC(=O)NCCCC[C@@H]4NC(=O)[C@@H](Cc5ccc(O)cc5)NC(=O)[C@H](CC(=O)O)NC(=O)CNC(=O)[C@H](CCCNC(=N)N)NC4=O)C3=O)NC(=O)CCC(C(=O)O)N3CCN(CC(=O)O)CCN(CC(=O)O)CCN(CC(=O)O)CC3)cc(c2)CSC[C@@H](C(=O)O)NC(=O)[C@H](Cc2ccccc2)NC(=O)[C@H](CCC(N)=O)NC(=O)C([C@@H](C)O)NC(=O)[C@@H]2CCCN2C(=O)[C@@H]2CCCN2C1=O (single isomer, unassigned) [^68Ga-SDYD08, metal not drawn] | quite stable in PBS buffer | significant radioactive uptake in the tumor sites | ≥ 10 | ≥ 10 |  |  |  |  |  |  |  | 
